# Experimental data from US20250369024A1, “Acyloin Condensation Reactions, Enzymes, and Products Thereof” (Mojia Biotech Pte. Ltd., priority 2023, published 2025).
# Experiments:
# [1] = tested on: AC440; assay: Tolerance of 2HIB in AC440; format: cell-based, E. coli; details: M9-LB; cell density at 600 nm
# Procedure: To check the tolerance of 2HIB, AC440 was grown in 5 mL of M9-LB supplemented with different concentration of 2HIB in 50 mL falcon tube, the cell density was monitored at 600 nm. The impact on growth could be observed at 25 g/L of 2HIB, while the AC440 is still able to grow and maintain its metabolic activity at the concentration of 2HIB at 75 g/L (FIG. 21), considering the cells will not suffer such high concentration of 2HIB at early stage, indicating AC440 is a good host for 2HIB production.
# [2] = tested on: formate; assay: Screening of formate activation enzymes with acetone and formate using growing cultures (2HIB); format: cell-based, E. coli; details: 100 mM acetone and 20 mM formate; growing cells
# From the text: Since formate activation is a required step for formate utilization, we further evaluated enzymes catalyzing this reaction. Acyl-CoA synthetase (ACS) enzymes are one of the three explored routes for formate activation, which can directly generate formyl-CoA from formate with the consumption of 2 ATP equivalents (ATP is converted to AMP). […] Therefore, ACS variants were further evaluated using the new established growing cell platform with ApbHACS overexpression. In this platform, formyl-CoA generated through formate activation enzymes is further condensed with non-toxic substrate acetone to produce 2-hydroxyisobutyrate (2HIB) (FIG. 23C).
# The screening of a larger group of formate activation enzymes in actively growing cells was conducted using the M9-LB medium contains 6.78 g/L Na2HPO4, 3 g/L KH2PO4, 1 g/L NH4Cl, 0.5 g/L NaCl, 2 mM MgSO4, 100 μM CaCl2), 15 μM thiamine-HCl, 10 g/L tryptone, and 5 g/L yeast extract additionally supplemented with the micronutrient solution of Neidhardt^68. […] The cells were pelleted by centrifugation and the supernatant analyzed by HPLC as described below. The expected product 2-hydroxyisobutyric acid was detected in the media indicating the performance of corresponding formate activation enzymes. […]
# [3] = tested on: 2-hydroxyisobutyryl-CoA; assay: In vitro purified enzyme isobutene glycol production from acetone and formate, ACR comparison; format: biochemical; details: 1 μM ACR and 1 μM FucO; 50 mM formate and 200 mM acetone
# Procedure: The enzymes acyl-CoA transferase CaAbfT, HACS ApbHACS, acyl-CoA reductase ACR (LmACR, BmACDH, PtACDH, RpPduP, StEutE), and NADH-dependent alcohol dehydrogenase FucO were overexpressed and purified as described above. In vitro purified enzyme reactions for condensation of acetone and formyl-CoA was comprised of 100 mM KPi pH 7.4, 10 mM MgCl2, 0.15 mM TPP, 4 mM NADH, 2 mM acetyl-CoA, 1 μM ApbHACL, 2 μM CaAbfT, 50 mM formate and 200 mM acetone. The mixture was incubated at 30° C. for 3 min, and then 1 μM ACR and 1 μM FucO was added, and then the reactions were incubated at 30° C. for another 5 min unless otherwise specified. 2 μL of 10 M NaOH was added to 45 μL mixture for 30 min, followed by 3 μL 10 N H2SO4, and then applied for HPLC analysis as described above.
# [4] = tested on: glyoxylate; assay: Growth-coupled selection of alanine dehydrogenases in glycine auxotroph strain; format: cell-based, E. coli; details: glycolate instead of glycine supplementation
molecule,measurement,setting,value
"CC(C)(O)C(=O)O [2HIB, 2-hydroxyisobutyric acid]",2HIB concentration at which AC440 is still able to grow and maintain metabolic activity,[1],75 g/L
same,2HIB concentration at which impact on growth could be observed,[1],25 g/L
"OfFrc: acyl-CoA transferase (ACT), Oxalobacter formigenes, Uniprot O06644 (protein, UniProt O06644 2-428, looked up) Formyl-CoA:oxalate …: TKPLDGINVLDFTHVQAGPACTQMMGFLGANVIKIERRGSGDMTRGWLQDKPNVDSLYFTMFNCNKRSIELDMKTPEGKELLEQMIKKADVMVENFGPGALDRMGFTWEYIQELNPRVILASVKGYAEGHANEHLKVYENVAQCSGGAAATTGFWDGPPTVSGAALGDSNSGMHLMIGILAALEMRHKTGRGQKVAVAMQDAVLNLVRIKLRDQQRLERTGILAEYPQAQPNFAFDRDGNPLSFDNITSVPRGGNAGGGGQPGWMLKCKGWETDADSYVYFTIAANMWPQICDMIDKPEWKDDPAYNTFEGRVDKLMDIFSFIETKFADKDKFEVTEWAAQYGIPCGPVMSMKELAHDPSLQKVGTVVEVVDEIRGNHLTVGAPFKFSGFQPEITRAPLLGEHTDEVLKELGLDDAKIKELHAKQVV",performance on formate activation (2HIB),[2],better performance
"StEutE: acyl-CoA reductase, Salmonella typhymurium, Uniprot P41793 (protein, UniProt P41793 1-467, looked up) Acetaldehyde dehydrogenase …: MNQQDIEQVVKAVLLKMKDSSQPASTVHEMGVFASLDDAVAAAKRAQQGLKSVAMRQLAIHAIREAGEKHARELAELAVSETGMGRVDDKFAKNVAQARGTPGVECLSPQVLTGDNGLTLIENAPWGVVASVTPSTNPAATVINNAISLIAAGNSVVFAPHPAAKKVSQRAITLLNQAVVAAGGPENLLVTVANPDIETAQRLFKYPGIGLLVVTGGEAVVDAARKHTNKRLIAAGAGNPPVVVDETADLPRAAQSIVKGASFDNNIICADEKVLIVVDSVADELMRLMEGQHAVKLTAAQAEQLQPVLLKNIDERGKGTVSRDWVGRDAGKIAAAIGLNVPDQTRLLFVETPANHPFAVTEMMMPVLPVVRVANVEEAIALAVQLEGGCHHTAAMHSRNIDNMNQMANAIDTSIFVKNGPCIAGLGLGGEGWTTMTITTPTGEGVTSARTFVRLRRCVLVDAFRIV",performance in isobutene glycol production,[3],best performance
"BsAld: alanine dehydrogenase from Bacillus subtilis, Uniprot Q08352 (protein, UniProt Q08352 1-378, looked up) Alanine dehydrogenase: MIIGVPKEIKNNENRVALTPGGVSQLISNGHRVLVETGAGLGSGFENEAYESAGAEIIADPKQVWDAEMVMKVKEPLPEEYVYFRKGLVLFTYLHLAAEPELAQALKDKGVTAIAYETVSEGRTLPLLTPMSEVAGRMAAQIGAQFLEKPKGGKGILLAGVPGVSRGKVTIIGGGVVGTNAAKMAVGLGADVTIIDLNADRLRQLDDIFGHQIKTLISNPVNIADAVAEADLLICAVLIPGAKAPTLVTEEMVKQMKPGSVIVDVAIDQGGIVETVDHITTHDQPTYEKHGVVHYAVANMPGAVPRTSTIALTNVTVPYALQIANKGAVKALADNTALRAGLNTANGHVTYEAVARDLGYEYVPAEKALQDESSVAGA",growth of glycine auxotroph strain with glycolate,[4],started to grow
